Results: US20110097270A1

Legend:
[1] = molecular target: hepatitis B surface antigen (HBsAg), purified from human plasma (hepatitis B virus); assay: competition inhibition ELISA: free HBsAg against HBsAg-coated wells; I50 of antigen multiplied by 100
[2] = molecular target: hepatitis B surface antigen (HBsAg), purified from human plasma (hepatitis B virus); assay: indirect competition ELISA on HBsAg-coated wells; highest attainable concentration of unlabeled Fab; competitor: HBV#8 IgG
[3] = molecular target: hepatitis B surface antigen (HBsAg), purified from human plasma (hepatitis B virus); assay: indirect competition ELISA on HBsAg-coated wells; highest attainable concentration of unlabeled Fab; competitor: biotinylated HBV#8 Fab
[4] = molecular target: hepatitis B surface antigen (HBsAg), purified from human plasma (hepatitis B virus); assay: competition inhibition ELISA; Kd of the IgG against Kd of the Fab

hepatitis B surface antigen (HBsAg), purified from human plasma (hepatitis B virus), sequence (P03141 175-400): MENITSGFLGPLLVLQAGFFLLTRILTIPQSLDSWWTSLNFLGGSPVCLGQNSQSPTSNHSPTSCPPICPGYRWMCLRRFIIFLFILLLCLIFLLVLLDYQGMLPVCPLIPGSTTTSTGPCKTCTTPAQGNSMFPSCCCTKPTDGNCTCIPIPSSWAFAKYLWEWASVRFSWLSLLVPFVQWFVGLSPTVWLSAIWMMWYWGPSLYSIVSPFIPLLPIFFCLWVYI

B1: HBV#8 Fab (Fab, V domains shown)
VH: EVQLLESGPGLVKPSQTLSLTCAVSGAFMTSDYLYWSWLRQPPGKGPEWIGGIYTTGRSHYNPSLRGRATLSVDTSKNQFSLELNSVTAADTAVYYCARGQYHNWGPSLFDYYNYYYMDVWGKGTTVTVSS
VL: AAELTQSPSSLSASVGDRVTITCRASQDISNYLAWYQQKPGKAPKLLIYSASRLQSGVPSRFSGSGSGTDYTLTLSSLHPEDSATYYCHQYHSAPWTFGQGTKVEIKR
Kd [1]: 1900 nM | percent inhibition of binding [2]: 57% | percent inhibition of binding [3]: 66%

B2: HBV#8 IgG (antibody, V domains shown)
VH: EVQLLESGPGLVKPSQTLSLTCAVSGAFMTSDYLYWSWLRQPPGKGPEWIGGIYTTGRSHYNPSLRGRATLSVDTSKNQFSLELNSVTAADTAVYYCARGQYHNWGPSLFDYYNYYYMDVWGKGTTVTVSS
VL: AAELTQSPSSLSASVGDRVTITCRASQDISNYLAWYQQKPGKAPKLLIYSASRLQSGVPSRFSGSGSGTDYTLTLSSLHPEDSATYYCHQYHSAPWTFGQGTKVEIKR
Kd [1]: 25 nM | fold improvement of affinity (IgG against Fab) [4]: 75 fold
